Results on 11 molecules are retold here after US20230250134A1 (University of Washington, published 2023).

The target of assay [1] is SARS-COV-2 spike protein on authentic virus, strain 2019 n-COV/USA_WA1/2020 (SARS-CoV-2, UniProt P0DTC2 14-1273). Briefly: cell-based or functional assay.
The target of assay [2] is T1, SARS-COV-2 Spike glycoprotein receptor binding domain (RBD) (SARS-CoV-2, UniProt P0DTC2 319-541). Briefly: estimated Kd for RBD, Table 10.
Assay [3] addresses SARS-COV-2 Spike glycoprotein (SARS-CoV-2, UniProt P0DTC2 14-1208). Briefly: estimated Kd for Spike (avidity), Table 10.
The target of assay [4] is T1, SARS-COV-2 Spike glycoprotein receptor ….

Where two headings read alike, the source gives them in different places.

B1: LCB1-3 (designed binder)
chain: DKEWILQKIYEIMRLLDELGHAEASMRVSDLIYEFMKQGDERLLEEAERLLEEVER
As to B1, the “SARS-CoV-2 Neutralization IC50” value in assay [1] was determined as 0.01 nM. Also, the Kd in assay [2] is 0.2 nM; in assay [3], 0.1 nM.

B2: LCB1-12GS-LCB1 (designed binder)
chain: DKEWILQKIYEIMRLLDELGHAEASMRVSDLIYEFMKKGDERLLEEAERLLEEVERGGSGGSGSGGSGDKEWILQKIYEIMRLLDELGHAEASMRVSDLIYEFMKKGDERLLEEAERLLEEVER
As for B2, in assay [1], the “SARS-CoV-2 Neutralization IC50” value was determined as 0.01 nM. Also, the Kd in assay [2] was 0.2 nM.

B3: LCB3_v1.2-10GS-LCB1_v1.1 (LCB3-GS10-LCB1) (designed binder)
chain: NDDELHMQMTDLVYEALHFAKDEEIQKHVFQLFEKATKAYKNKDRQKLEKVVEELKELLERLLSGGSGGSGGSGDKENILQKIYEIMKTLDQLGHAEASMQVSDLIYEFMKQGDERLLEEAERLLEEVER
With B3, the Kd is 0.2 nM in assay [4] and 0.1 nM in assay [3].

B4: LCB1_v1.1-PRO-LCB3_v1.2 (1PRO3) (designed binder)
chain: DKENILQKIYEIMKTLDQLGHAEASMQVSDLIYEFMKQGDERLLEEAERLLEEVERAGSGGSGGSGGSPVPSTPPTPSPSTPPTPSPSPVPSTPPTPSPSTPPTPSPSPVPSTPPTPSPSTPPTPSPSASGNDDELHMQMTDLVYEALHFAKDEEIQKHVFQLFEKATKAYKNKDRQKLEKVVEELKELLERLLS
Take B4: the Kd in assay [4] is 0.2 nM; in assay [3], 0.1 nM.

B5: LCB3_v1.2-PRO-LCB3_v1.2 (3PRO3) (designed binder)
chain: NDDELHMQMTDLVYEALHFAKDEEIQKHVFQLFEKATKAYKNKDRQKLEKVVEELKELLERLLSAGSGGSGGSGGSPVPSTPPTPSPSTPPTPSPSPVPSTPPTPSPSTPPTPSPSPVPSTPPTPSPSTPPTPSPSASGNDDELHMQMTDLVYEALHFAKDEEIQKHVFQLFEKATKAYKNKDRQKLEKVVEELKELLERLLS
Take B5: the results for the Kd in assay [4] and in assay [3] were 0.2 nM and 0.1 nM, respectively.

B6: LCB1-6GS-LCB1 (designed binder)
chain: DKEWILQKIYEIMRLLDELGHAEASMRVSDLIYEFMKKGDERLLEEAERLLEEVERGGSGGSDKEWILQKIYEIMRLLDELGHAEASMRVSDLIYEFMKKGDERLLEEAERLLEEVER
With B6, the “SARS-CoV-2 Neutralization IC50” value in assay [1] came out at 0.01 nM. Also, the Kd in assay [2] is 0.2 nM.

B7: LCB6-2 (designed binder)
chain: DREQRLVRFLVRLASKFNLSMEQILILFDVLEELLERGVSEEEIRKILEEVAKEL
Turning to B7, the “SARS-CoV-2 Neutralization IC50” value in assay [1] was found to be 0.01 nM. For the same molecule, the values for the Kd in assay [2] and in assay [3] were 0.2 nM and 0.1 nM, respectively.

B8: LCB6-1 (designed binder)
chain: DREQRLVRFLVRLASKFNLSPEQILQLFEVLEELLERGVSEEEIRKQLEEVAKELG
On to B8, for which the “SARS-CoV-2 Neutralization IC50” value in assay [1] was 0.01 nM. Moreover, the Kd is 0.2 nM in assay [2] and 0.1 nM in assay [3].

B9: LCB3_v1.2-PRO-LCB1_v1.1 (3PRO1) (designed binder)
chain: NDDELHMQMTDLVYEALHFAKDEEIQKHVFQLFEKATKAYKNKDRQKLEKVVEELKELLERLLSAGSGGSGGSGGSPVPSTPPTPSPSTPPTPSPSPVPSTPPTPSPSTPPTPSPSPVPSTPPTPSPSTPPTPSPSASGDKENILQKIYEIMKTLDQLGHAEASMQVSDLIYEFMKQGDERLLEEAERLLEEVER
Consider B9, for which the Kd in assay [4] was 0.2 nM; in assay [3] it was 0.1 nM.

B10: LCB1_v1.1-GS-LCB3_v1.2 (1GS3) (designed binder)
chain: DKENILQKIYEIMKTLDQLGHAEASMQVSDLIYEFMKQGDERLLEEAERLLEEVERGGGGSGGGGSGGGGSGGGGSGGGGSGGGGSGGGGSGGGGSGGGGSGGGGSGGGGSGGGGSGGGGSGGGGSGGGGSNDDELHMQMTDLVYEALHFAKDEEIQKHVFQLFEKATKAYKNKDRQKLEKVVEELKELLERLLS
Regarding B10, the Kd was 0.2 nM in assay [4] and 0.1 nM in assay [3].

B11: LCB3_v1.2-GS-LCB1_v1.1 (3GS1) (designed binder)
chain: NDDELHMQMTDLVYEALHFAKDEEIQKHVFQLFEKATKAYKNKDRQKLEKVVEELKELLERLLSGGGGSGGGGSGGGGSGGGGSGGGGSGGGGSGGGGSGGGGSGGGGSGGGGSGGGGSGGGGSGGGGSGGGGSGGGGSDKENILQKIYEIMKTLDQLGHAEASMQVSDLIYEFMKQGDERLLEEAERLLEEVER
In the case of B11, the Kd in assay [4] was 0.2 nM; in assay [3], 0.1 nM.
